Legend:
[1] = target: SPAG9, O60271-2
[2] = target: SPAG9, O60271-2; remark: listed apart in the source

Chain of SPAG9, O60271-2 (O60271 other isoform, or with tags, fused parts or gaps): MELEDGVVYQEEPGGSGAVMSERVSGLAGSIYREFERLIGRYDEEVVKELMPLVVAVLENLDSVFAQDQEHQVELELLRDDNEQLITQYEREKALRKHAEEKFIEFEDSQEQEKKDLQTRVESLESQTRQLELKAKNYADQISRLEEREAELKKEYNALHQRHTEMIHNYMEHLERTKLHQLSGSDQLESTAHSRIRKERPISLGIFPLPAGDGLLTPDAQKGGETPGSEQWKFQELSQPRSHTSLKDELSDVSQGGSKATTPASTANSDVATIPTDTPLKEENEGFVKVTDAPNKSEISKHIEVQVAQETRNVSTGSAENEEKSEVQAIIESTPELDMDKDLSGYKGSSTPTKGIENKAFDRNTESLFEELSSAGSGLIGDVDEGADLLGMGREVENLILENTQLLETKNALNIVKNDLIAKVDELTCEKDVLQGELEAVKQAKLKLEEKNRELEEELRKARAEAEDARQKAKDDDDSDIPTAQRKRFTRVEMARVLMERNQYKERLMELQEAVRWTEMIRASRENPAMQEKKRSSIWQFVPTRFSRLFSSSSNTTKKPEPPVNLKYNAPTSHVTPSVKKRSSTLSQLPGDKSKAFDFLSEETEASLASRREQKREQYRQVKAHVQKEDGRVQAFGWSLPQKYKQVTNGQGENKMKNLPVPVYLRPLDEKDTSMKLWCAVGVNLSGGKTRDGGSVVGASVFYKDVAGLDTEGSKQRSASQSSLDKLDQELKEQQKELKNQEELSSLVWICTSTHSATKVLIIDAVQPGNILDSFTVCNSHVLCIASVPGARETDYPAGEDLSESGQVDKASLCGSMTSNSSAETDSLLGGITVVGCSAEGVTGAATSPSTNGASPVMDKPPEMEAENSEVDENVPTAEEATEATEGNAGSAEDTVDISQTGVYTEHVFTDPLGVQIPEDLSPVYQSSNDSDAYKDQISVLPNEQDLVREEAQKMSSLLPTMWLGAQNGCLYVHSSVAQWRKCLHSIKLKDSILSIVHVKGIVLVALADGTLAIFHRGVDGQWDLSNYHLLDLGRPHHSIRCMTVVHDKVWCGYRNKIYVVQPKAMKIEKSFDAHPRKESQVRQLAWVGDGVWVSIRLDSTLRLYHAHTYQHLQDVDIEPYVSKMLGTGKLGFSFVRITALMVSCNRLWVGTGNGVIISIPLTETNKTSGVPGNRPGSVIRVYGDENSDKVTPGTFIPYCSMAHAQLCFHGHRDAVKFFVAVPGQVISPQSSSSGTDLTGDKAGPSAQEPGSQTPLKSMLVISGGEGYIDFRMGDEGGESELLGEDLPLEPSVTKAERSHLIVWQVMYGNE
Chain of ADP-ribosylation factor 1 (Homo sapiens), P84077 S62K (P84077 whole entry S62K): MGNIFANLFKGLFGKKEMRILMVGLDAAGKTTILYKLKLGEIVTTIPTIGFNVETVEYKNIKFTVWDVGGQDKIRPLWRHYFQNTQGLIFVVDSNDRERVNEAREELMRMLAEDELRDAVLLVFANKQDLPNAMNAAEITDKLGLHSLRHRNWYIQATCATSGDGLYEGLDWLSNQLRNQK
Chain of ADP-ribosylation factor 1 (Homo sapiens), P84077 E57T (P84077 whole entry E57T): as the sequence (P84077 whole entry S62K) above, with E57T, K62S counted along it

Row | Substance | effect of a mutation on the interaction [1] | effect of a mutation on the interaction [2]
1 | ADP-ribosylation factor 1 (Homo sapiens), P84077 E57T | increasing interaction | –
2 | ADP-ribosylation factor 1 (Homo sapiens), P84077 Q83T | increasing interaction | –
3 | ADP-ribosylation factor 1 (Homo sapiens), P84077 T64N | – | increasing interaction
4 | ADP-ribosylation factor 1 (Homo sapiens), P84077 S62K | – | increasing interaction

Reference: IntAct's records for PubMed 19644450
